Test results reported in publication PMC10503714.

Molecular target: stressed NISTmAb monoclonal antibody
Test: AUC; sedimentation velocity at 50,000 rpm and 20°C; c(s) analysis in SEDFIT, by command line operation and repeated by manual operation on the same data; stressed, partially denatured sample

stressed NISTmAb monoclonal antibody
percent of signal in higher aggregates (command line analysis): 51.8%
percent of signal in higher aggregates (manual analysis): 51.7%
percent of signal in the dimer peak: 12.5%
stoichiometry N: 2
